# Data from patent US10251942B2, “Immunity-inducing agent” (TORAY INDUSTRIES, INC., priority 2009, dated 2019).
# Where a SMILES comes first, the peptide text is derived from it.
# B1: canine recombinant PDS5A protein: full-length canine PDS5A (SEQ ID NO:2) expressed in E. coli; given mixed with Freund's incomplete adjuvant (protein, listed as Canis familiaris)
# chain: MDFTAQPKPATALCGVVSADGKIAYPPGVKEITDKITTDEMIKRLKMVVKTFMDMDQDSEDEKQQYLPLALHLASEFFLRNPNKDVRLLVACCLADIFRIYAPEAPYTSHDKLKDIFLFITRQLKGLEDTKSPQFNRYFYLLENLAWVKSYNICFELEDCNEIFIQLFRTLFSVINNSHNKKVQMHMLDLMSSIIMEGDGVTQELLDSILINLIPAHKNLNKQSFDLAKVLLKRTVQTIEACIANFFNQVLVLGRSSVSDLSEHVFDLIQELFAIDPHLLLSVMPQLEFKLKSNDGEERLAVVRLLAKLFGSKDSDLATQNRPLWQCFLGRFNDIHVPVRLESVKFASHCLMNHPDLAKDLTEYLKVRSHDPEEAIRHDVIVTIITAAKRDLALVNDQLLGFVRERTLDKRWRVRKEAMMGLAQLYKKYCLHGEAGKEAAEKVSWIKDKLLHIYYQNSIDDKLLVEKIFAQYLVPHNLETEERMKCLYYLYASLDPNAVKALNEMWKCQNMLRSHVRELLDLHKQPTSEANCSAMFGKLMTIAKNLPDPGKAQDFVKKFNQVLGDDEKLRSQLELLISPTCSCKQADVCVREIARKLANPKQPTNPFLEMVKFLLERIAPVHIDSEAISALVKLMNKSIEGTADDEEEGVSPDTAIRSGLELLKVLSFTHPTSFHSAETYESLLQCLRMEDDKVAEAAIQIFRNTGHKIETDLPQIRSTLIPILHQKAKRGTPHQAKQAVHCIHAIFTNKEVQLAQIFEPLSRSLNADVPEQLITPLVSLGHISMLAPDQFASPMKSVVANFIVKDLLMNDRSTGEKNGKLWSPDEEVSPEVLAKVQAIKLLVRWLLGMKNNQSKSANSTLRLLSAMLVSEGDLTEQKRISKSDMSRLRLAAGSAIMKLAQEPCYHEIITPEQFQLCALVINDECYQVRQIFAQKLHKALVKLLLPLEYMAIFALCAKDPVKERRAHARQCLLKNISIRREYIKQNPMATEKLLSLLPEYVVPYMIHLLAHDPDFTRSQDVDQLRDIKECLWFMLEVLMTKNENNSHAFMKKMAENIKLTKDAQSPDESKMNEKLYTVCDVALCVINSKSALCNADSPKDPVLPMKFFTQPEKDFCNDKSYISEETRVLLLTGKPKPAGVLGAVNKPLSATGRKPYVRSTGAETGSNINVNSELNPSTGNRSREQSSEAVETGVSENEENPVRIISVTPVKNIDPVKNKEINSDQTTQGNISSDRGKKRSVAAAGTENIQQKTDEKVDESGPPAPSKPRRGRRPKSESQGNATKNDDINKPLGKGRKRAAVSQESPGGLEAGNAKAPKLQDVAKKAVPAERQIDLQR
# modifications: mixed with Freund's incomplete adjuvant
# Columns and labels:
# [1] = system: malignant brain tumor cell line T98G; test: Chromium 51 release cytotoxicity of peptide-stimulated CD8-positive T cells; type: cell-based, human; conditions: 10^5 T cells and 10^3 T98G cells, 4 hours
# Experimental: In a 50-ml centrifuge tube, 10^5 cells of a malignant brain tumor cell line T98G, whose expression of PDS5A had been confirmed (Stein G H et al., J. Cell Physiol., 99: 43-54 (1979), purchased from ATCC), were collected, and 100 μCi of chromium 51 was added to the tube, followed by incubation at 37° C. for 2 hours. […] Thereafter, the amount of chromium 51 released from damaged tumor cells into the culture supernatant was measured, and thereby the cytotoxic activity of the CD8-positive T cells stimulated with each of the polypeptides shown in SEQ ID NOs:27 to 35 was calculated.
# The cytotoxic activity was determined by, as described above, mixing 10^5 CD8-positive T cells stimulated and induced with each of the peptides of the present invention and 10^3 cells of a malignant brain tumor cell line T98G to which chromium 51 was incorporated; culturing the resultant for 4 hours; measuring the amount of chromium 51 released into the culture medium after the culturing; and calculating the cytotoxic activity of the CD8-positive T cells against T98G according to the following equation*. cytotoxic activity (%)=(Amount of chromium 51 released from T98G when CD8-positive T cells were added)/(Amount of chromium 51 released from the target cells to which 1N hydrochloric acid was added)×100. *Equation: […]
# [2] = system: epidermal squamous cell carcinoma; test: Anti-tumor effect of canine recombinant PDS5A protein in patient dog, epidermal squamous cell carcinoma; type: in vivo; conditions: 500 μg protein with Freund's incomplete adjuvant, subcutaneous near tumor, 4 times at 1-week interval; tumor about 280 mm^3 at administration
# Experimental: (§1) With 500 μg (2.5 ml) of the canine recombinant PDS5A protein purified as described in Example 5 below, the same amount of Freund's incomplete adjuvant (manufactured by Wako Pure Chemical Industries, Ltd.) was mixed to prepare a therapeutic agent for cancer, and this therapeutic agent was subcutaneously administered in the vicinity of the tumor in 1 individual each of patient dogs suffering from perianal adenocarcinoma and epidermal squamous cell carcinoma a total of 4 times at 1-week interval.
# perianal adenocarcinoma = test: Anti-tumor effect of canine recombinant PDS5A protein in patient dog, perianal adenocarcinoma; type: in vivo; conditions: 500 μg protein with Freund's incomplete adjuvant, subcutaneous near tumor, 4 times at 1-week interval; tumor about 370 mm^3 at administration
# Experimental: as §1
# mammary gland tumor = test: Anti-tumor effect of recombinant PDS5A protein in tumor-bearing dog, mammary gland tumor; type: in vivo; conditions: 500 μg protein with same amount of Freund's incomplete adjuvant, regional lymph node near tumor, 3 times at 1-week intervals; tumor about 500 mm^3 (dog-derived) or 1000 mm^3 (human-derived) at administration
# Experimental: The anti-tumor effect of the recombinant protein described in Example 5 below in 3 individuals of tumor-bearing patient dogs (3 individuals having a mammary gland tumor) having a tumor mass in the epidermis was evaluated. Before administration, the antibody titer against the recombinant protein in the serum of each patient dog was measured by the method described in Example 5 (3), and, as a result, an antibody titer higher than that of a healthy dog was detected.
# With 500 μg (2.5 ml) each of the recombinant PDS5A proteins (dog-derived and human-derived) purified as described above, the same amount of Freund's incomplete adjuvant (manufactured by Wako Pure Chemical Industries, Ltd.) was mixed to prepare 2 kinds of therapeutic agents for cancer, each of which was administered to a regional lymph node in the vicinity of the tumor a total of 3 times at 1-week intervals. […] On the other hand, in the negative control group to which PBS(−) was administered, the tumor volume, which had been about 800 mm^3 at the time of administration of PBS, became 1625 mm^3 on Day 21 after the administration.
Molecule,cytotoxic activity of stimulated CD8-positive T cells against T98G [1],day on which complete regression of the tumor was achieved [2],day on which complete regression of the tumor was achieved (perianal adenocarcinoma),day on which complete regression of the tumor was achieved (mammary gland tumor)
CC(C)C[C@H](NC(=O)[C@H](CCCCN)NC(=O)[C@H](Cc1ccc(O)cc1)NC(=O)[C@H](C)NC(=O)[C@H](CO)NC(=O)[C@H](CS)NC(=O)[C@H](CS)NC(=O)[C@H](CCC(N)=O)NC(=O)[C@@H](N)CC(C)C)C(=O)O [SEQ ID NO:36] (H-LQCCSAYKL-OH),no cytotoxic activity,,,
B1,,42 days,35 days,13 days
